Experimental data published in patent publication US20240026407A1, “MODIFICATION OF SAPONINS” (GLAXOSMITHKLINE BIOLOGICALS SA, priority 2020, published 2024).

B1: 312 (protein, listed as Thermotoga neapolitana)
chain: MEKVNEILSQLTLEEKVKLVVGVGLPGLFGNPHSRVAGAAGETHPVPRVGLPAFVLADGPAGLRINPTRENDENTYYTTAFPVEIMLASTWNRELLEEVGKAMGEEVREYGVDVLLAPAMNIHRNPLCGRNFEYYSEDPVLSGEMASSFVKGVQSQGVGACIKHFVANNQETNRMVVDTIVSERALREIYLRGFEIAVKKSKPWSVMSAYNKLNGKYCSQNEWLLKKVLREEWGFEGFVMSDWYAGDNPVEQLKAGNDLIMPGKAYQVNTERRDEIEEIMEALKEGKLSEEVLDECVRNILKVLVNAPSFKNYRYSNKPDLEKHAKVAYEAGAEGVVLLRNEEALPLSENSKIALFGTGQIETIKGGTGSGDTHPRYAISILEGIKERGLNFDEELAKTYEDYIKKMRETEEYKPRRDSWGTIIKPKLPENFLSEKEIHKLAKKNDVAVIVISRISGEGYDRKPVKGDFYLSDDETDLIKTVSREFHEQGKKVIVLLNIGSPVEVVSWRDLVDGILLVWQAGQETGRIVADVLTGRINPSGKLPTTFPRDYSDVPSWTFPGEPKDNPQKVVYEEDIYVGYRYYDTFGVEPAYEFGYGLSYTTFEYSDLNVSFDGETLRVQYRIENTGGRAGKEVSQVYIKAPKGKIDKPFQELKAFHKTRLLNPGESEEVVLEIPVRDLASFNGEEWVVEAGEYEVRVGASSRNIKLKGTFSVGEERRFKP
B2: 35 (protein, listed as Verrucomicrobia bacterium)
chain: MSEPDVENRINGLLKQMSLEEKTSLLHGNSKFNTAGIKRLGIPRLHLSDGPHGVRRETEEHSWGPVGWEDDYVTYLPTGSALASTWNPALGRLFGETLGAEARHRNKDVILGPGINIVRTPVCGRNFEYFGEDPYHVGKMAAEVVRGIQNNDVAACVKHYALNNQEWNRGWVNAIVDERTLREIYLPAFEETVRAGALTFMGAYNRFRGQWCCENKYLVNDILKGEWGFDGVYLSDWGGVHSTRDSALNGLDLEMGTSDNYDEFFFARPLREAVEGGEIPESVVDDKVRRILRVMARIGALDPATRKTGARNTAAHQKAVRAIADEAMVLLKNDGVLPLDIHKTLKLAVIGENADKKHADQGGSSAIRALYEITPLEGLKRRGGDMVKITYVQGYRDTGDAAAFEPIGEPYVQTVDPKAGVRCWKVEYFNNRDLHMPPVTVRYEKSVDFDWQERSPAPNVSEDNFSARMTAEIKPTASGTHHIGLTSDDGSRLKIDGKVVIDHWGDHGEEQKDARVELVAGQTYRFEVEYYDSGKGAMLKLGWVTPDSSAADPEVVFAAALEAAREADAVLVFAGQNHRYDTEGVDRRDIRLHGRQNDLIEAVAAANPRTAVFIISGSAVEMPWIDKVPCVVQAWYAGMEVGNAAAGIVFGDVNPSGKLPITFPKRLEDVPAHSIGQYNDQDCEYREGLLVGYRHFDTRNAEPLFPFGHGLSYTKFTYGNLKVDPATLEVRVSVKNTGARKGKEVVQLYVHDVQSRLPRPVKELKGFEKVELAPGETKEVAFRLDERALAFYDADANRWVVEPGDFDILVGSSSRDIRLKGRLAYAGRKKGPL
B3: 32 (protein)
chain: MSIRLTDKASVPAVVAEMTLEEKARLVTGEFPFTTAGIKRLGIPPMRPLDGHTGINMGQLRSDMASKTLANKSVDELGEMSGPAISGFGTVITNAKDPAKRAKMAPSIQKLVQEVLDKVDELMPDGMYPGCFPPGIMQGSTWNPEVIEKEGSAVGKEMDAYKVDVCLGPNVNIHRDPLNGRLFEGYSEDPYVTATLAPYYIRGMQAEGVAADAKHFAANNQETHRQEIDERIPLRALYEIYLPGFKAAVQQGKVKTLMSAYNKINGTACALNHWLLTDVLRGEWGFEGFVVSDWGAVYDQVDAINAGNDLEMPGPLTFDKIVAAVKDGRIDEKTLDQRVANYLNVLVELPVMKGRKNAHIDREYSRKAAYDVAAEGSILLKNEGALPLNEGAKISLIGEHAKDYIICGKGSAFIDTDQATNLYDCAVETLGADKVEYGDVSADSDAAIIVVSVDGQEGSDRADLLLAPGDDQMILDAAKKAHANGKKAIVILNVTGPVEMEGWLDQVDAVLCVWLPGMEGGRATLDILTGKVNPSGKLTLTFPKHYYDCPTYGNFPGDGDEVWYGEGIYVGYRYYDKKHVEPLYPFGYGLSYTTFELSDIAIDRDVMDMDKGETVNVSVKVTNTGKVAGKEVVQVYISDEVSTLSKPLKELKGFQKVALQPGESKVVTIAIGKDQLASYDPAAKAWGSEPGYYQALVGTSSRDIAGAVRFKAVGYNPFGYGVNCSIGKIMANPAVVEAMKKYIPAHLLSDESMSSELTYFPEAKLQKIWNEKFSLAFKDKSETEKQAILDAMCAEIAKIEVI
modifications: uncultured Clostridium sp.
B4: 41 (protein, listed as Ardenticatena maritima)
chain: MKGARMQDRVETLLQSLTLDEKIKLLAGADTWHTHAIPRLGIPALKVTDGPNGVRGTQKDTRSQTSASFPVGTAMGATWNPDLVREIGEALAEEVKTKGAHVLLGPTVNMHRHPLAGRNFECFAEDPYLMARMAVAYIQGVQSQGVGACIKHYVCNDQEFERFSISAEVDERTLREIYLPPFKAAVQEAGVWTLMTAYNRVNGVYASENSHLFDILKDEWGFDGLALSDWYGTYSDRVPLERLDLEMPGPGRWMAPEKVRAALERGEITEADIDDKVRRLLRTLERVGAFEDSAPKEERSVDNPRHHEIIRRAGREAIVLLKNEDNVLPLDASRFPRLAVIGRPATEVSFQGGGSSEVNPHYVVQPLDAMRERYGEAFQMTYALGPAFYRNFPLLDTRGLRAEDGTPGKVTVRQYDNTELEGEPSKVFLAEGTQLAWFGEQISEFDLRSFSLTMSGTWTPPVSGTYTFSMATVGRGRFEFDGKTLLDWWEYIPEEQPQNFDGMVSVPWRQEEVTLELEAGREYPFRVDFAVVPGGRWRTIRLGVLPPQPADPIGEAVALAREADAAVVFVGLTPEWESEGSDRESMDLPGEQNELVARVAEANPNTIVIVNAGSPVHMPWLDKVKAVLQVWYLGQEMGNAITDVLFGEADPGGRLPTTFPKRLQDSPAYINYPGENGRVYYGERLYVGYRYYDKKEIEPLFPFGHGLSYTTFSYDALELAADQVRVGEGVDVHVTITNQGARRGQEVVQVYLHDVESSLPRPPKELKGFAKVTLEPGETRTVTIHLRPDAFAFYDDKRGAWVVEPGAFEVLVGRSAADIRLRARLDIVDKTTEALEAGNVLAG
B5: 370 (protein, listed as Rhizoctonia solani)
chain: MAPRPFKPLDVEDVISKLSLNEKTRLLAGIDNWHTYPVPRLGVPSLRFTDGPNGARGTKFFEGVPAACFPAATGLGSSWDPEFIQKVGQAIGRDCKDKGCHVLLGPTINIQRSPLGGRGFESYSEDPLLSGTLARAFIKGVQSEGVSATIKHYVTNDSEFERMSMSSELSTRALREIYLRPFELACRDPETAPWAVMTAYNRVNGLHASENKYLLDSVLRKQWGWEGMIMSDWYGTYSADASIKAGLDLEMPGPPTWRADALQRCVVAQKIRVPEIDARVREVLKLINRVAVSGIPENADETGEPKPETIDLLRQAAAHANVLLKNSESLLPISAKDVASIAVIGPNADSPVFSGGGSANLRPYKHTTALEGIAAALQDAGNKVEVQHTIGAHAHKEAPLLGVKHLKTKAGEPGYDIEWFNEDPVQNPDAKRVHYTHGTTSFAFFNDNLPGDDVLHQECWATMTAIFTPEVTGKYEFGAAATGLVDVYVDGKKIIDNSSNPVPGHVFFMTGTVEVLNTVELTAGKPAEIKLQFASPVAARTKGFTQIGAGSLSLEGRGGCRWGGGRTFEDDQGIKEAVDLAKKVDKVVLVVGLNNDWESEGYDRDNMELPRATNRLVSAVLEVNKNTAVVIISGTPVAMPWAESASTIVQSFYSGGEAGNGLADVLFGKVNPSSRLPLTFPVRDEDTPSHLNFPGQNGKVLYAEGVFVGYRHYLTYKKKVLFPFGYGLSYTQFEHSDLKLSGEIGKDSTVKVSVTVKNTGKVAGRDVVQIYVRDLVSRLDRPVKELKGFAKSSLLEPGKSETVTITLDKYAFGYFDDWAGEGRDGEGLWVAEAGDFEIVAASTSEDVGISAGISLKQSFEWL

Legend:
[1] = Experiment 4-1: screening of glucosidases for deglycosylation with purified QS-18 (0.04 mg/ml) at pH 7.5 and room temperature; format: biochemical, Quillaja saponaria; conditions: pH 7.5, room temperature, 20 h, clarified E. coli lysate, QS-18 2150 to QS-21 1988 by LCMS/MS
Experimental: Nucleotide sequences were sub-cloned into pET24b+ for expression. 10 uL of E. coli cells (One Shot® BL21(DE3) chemically competent E. coli) were transferred to each well of a 96 well PCR plate (prechilled on ice). 10 uL autoclaved water was added to the DNA, resuspended by pipetting, and 1 uL of plasmid DNA (15-30 ng) was transferred to the competent cells. Immediately after addition, the resulting mixture was mixed by pipetting. Cells were heat shocked by placing the plate in a thermal cycler at 42° C. for 30 seconds then transferred directly to an ice bath for 2 min. 100 uL sterile Lysogeny Broth (LB) medium was added to each well containing transformed cells. The content of each plate was transferred into a 96-deep well plate pre-aliquoted with 400 uL LB and the plate was incubated at 37° C. with shaking and 85% humidity for 1 hour. After outgrowth, 500 uL of sterile LB containing 100 ug/mL kanamycin was added to the plates containing cells and plates incubated at 37° C. with shaking overnight (18 hours) with humidity control (85%).
1000 mLs of Overnight Express Media was supplemented with 1 mL kanamycin 50 mg/mL and 20 mL of 50% v/v glycerol added (50 ug/mL kanamycin final and 1% glycerol). 96-Well Assay Block 2 mL plates were aliquoted with 380 uL of media per well. Pre-inoculum (20 uL) from transformation plates was added. The plates were sealed appropriately and incubated at 37° C. at 300 with shaking for 2 h. After 2 h the temperature was lowered to 20° C. and incubation continued for 20 h.
The liquid cultures were centrifuged for 10 minutes at 4° C. The supernatant was discarded, plates blotted on an absorbent material to remove residue and the plates frozen at −80° C.
Lysis buffer was prepared according to the following protocol: • 1. Polymyxin B sulphate (0.5 mg/mL) was suspended in 100 mM potassium phosphate pH 7.5 • 2. The mixture was sonicated until polymyxin B sulphate had dissolved • 3. Lysozyme (1 mg/mL) and benzonase (0.1 uL/mL lysis buffer) were added
2 copies of each cell pellet plate were removed from −80 degC freezer and allowed to thaw. 200 uL of lysis buffer was added to each well of one copy of the cell pellet plates. Plates were shaken at room temperature for 10 mins. 190 uL of cell pellet/lysis buffer was transferred to a corresponding fresh cell pellet plate. These plates were incubated at room temperature with shaking for 2 hours. Lysate was clarified by centrifugation (10 min, 4 degC).
QS-18 was obtained by analogous methods to Example 3, collecting a QS-18 containing phenyl fraction following phenyl treatment (presence of m/z corresponding to key components was confirmed by MS and the phenyl fraction then used without further treatment). QS-18 solution was prepared by diluting aqueous QS-18 (ca 1 mg/mL) with 100 mM potassium phosphate pH 7.5 to 0.2 mg/ml. 40 uL clarified lysate was transferred into fresh 96 well PCR plates. 10 uL QS-18 solution added to each well of lysate to a final concentration of 0.04 mg/ml. Incubated at room temperature with shaking for 20 h. Quenched with 50 uL MeCN and shaken at room temperature for 10 mins. Samples were analysed by LC-MS/MS using a Waters Acquity H class coupled to a Waters Xevo Tandem Quadrupole (TQD) Mass Spectrometer.
Enzyme activity was calculated as: […]
Candidate enzymes with % conversion >0.72%, i.e. >3 S.D. above negative control, were considered to be positive hits and are listed below in Table 7. Sample results are shown in FIG. 10 for a QS-21 standard, FIG. 11 for negative control and FIG. 12 for treatment with the glucosidase of SEQ ID No. 262.

[2] = Experiment 4-2: screening of glucosidases for deglycosylation with purified QS-18 (1 mg/ml) at pH 6 and 30 deg C; format: biochemical, Quillaja saponaria; conditions: pH 6, 30 degC, 18 hrs, clarified lysate, LCMS/MS
Experimental: Lysates were prepared in an identical manner to Experiment 4-1 above, except the lysis buffer was prepared in 100 mM potassium phosphate buffer pH 6. QS-18 solution was prepared by dissolving QS-18 in 100 mM potassium phosphate buffer pH 6 (2 mg/mL).
12 uL clarified lysate was transferred into fresh 96 well PCR plates. 12 uL QS-18 solution was added (1 mg/ml final concentration), plates sealed and incubated overnight (30° C.) for 18 hrs. After quenching with 25 uL MeCN and shaking for 10 mins (RT), samples were analysed using the LC-MS/MS protocol described in Experiment 4-1 and enzyme activity determined in an analogous manner.

Molecule	Expt 4-1 % conv [1] [%]	Expt 4-2 % conv [2] [%]
B1	1.6	0.4
B2	1.2	0.4
B3	2.2	0.6
B4	4.0	0.7
B5	1.1	0.5
